Substitutions are numbered along the chain they refer to. Names may count otherwise.
Legend:
Format in all cases: biochemical, Trichoderma reesei
[1] = substrate: [H][C@@]1(O[C@H]2[C@H](O)[C@@H](O)[C@H](Oc3ccc([N+](=O)[O-])cc3)O[C@@H]2CO)O[C@H](CO)[C@H](O)[C@H](O)[C@H]1O; experiment: pNP-Lactopyranoside (pNP-L) assay, kinetics, TrCel7A 1-1d; conditions: other: TrCel7A 1-1d, 45° C., 30 minutes, pNP-L 8 mM-0.133 mM
Text: (§1) The wild-type (wt) TrCel7A sequence was aligned with all the high-pNP-L activity sequences in order to identify the corresponding positions of mutations in TrCel7A. Without being bound by theory, these mutations should result in improving pNP-L activity of TrCel7A. PCR-based point mutagenesis or gene synthesis was used to generate the corresponding 9 TrCel7A mutants.
(§2) Cel7A was purified as described in Linger et al., Biotechnol Biofuels 8:45 (2015). Briefly, fermentation broths (˜8 to 10 L) were harvested, vacuum filtered, concentrated, and then loaded onto a 26/10 Phenyl Sepharose Fast Flow column. Buffer A was 20 mM Bis-Tris pH 6.5 and buffer B was 20 mM Bis-Tris pH 6.5, 2.0 M (NH4)2SO4. After binding and washing, a descending gradient of 80% B (1.6 M (NH4)2SO4) to 0% B over eight column volumes was used to elute the bound proteins from the column. Active fractions were identified by a p-nitrophenyl-β-(1-4)-D-lactopyranoside (pNP-L) activity assay. The pNP-L-active fractions were pooled and concentrated as needed. Protein was desalted and exchanged into 20 mM Bis-Tris buffer pH 6.5. […]
(§3) The pNP-L assay was performed by incubating 150 μL of 2 mM pNP-L with 25 μL of sample at 45° C. for 30 minutes. Reactions were quenched with 25 μL of 1 M Na2CO3, and the absorbance at 405 nm was measured. […]

[2] = substrate: [H][C@@]1(O[C@H]2[C@H](O)[C@@H](O)[C@H](Oc3ccc([N+](=O)[O-])cc3)O[C@@H]2CO)O[C@H](CO)[C@H](O)[C@H](O)[C@H]1O; experiment: pNP-Lactopyranoside (pNP-L) assay, kinetics, TrCel7A 6-53a; conditions: other: TrCel7A 6-53a, 45° C., 30 minutes, pNP-L 8 mM-0.133 mM
Text: as §1, §2, §3

[3] = substrate: [H][C@@]1(O[C@H]2[C@H](O)[C@@H](O)[C@H](Oc3ccc([N+](=O)[O-])cc3)O[C@@H]2CO)O[C@H](CO)[C@H](O)[C@H](O)[C@H]1O; experiment: pNP-Lactopyranoside (pNP-L) assay, kinetics, TrCel7A WT; conditions: other: TrCel7A WT, 45° C., 30 minutes, pNP-L 8 mM-0.133 mM
Procedure: as §2, with “6.5. This sample was then loaded onto a Tricorn 10/100 anion exchange column packed with Source 15Q and eluted with a 0-50% salt gradient over 30 column volumes. Buffers were 20 mM Bis-Tris pH 6.5 (A) and the same supplemented with 1.0 M NaCl (B). pNP-L activity was followed again to identify the active fractions.” for “6.5.”
as §3

[4] = substrate: [H][C@@]1(O[C@H]2[C@H](O)[C@@H](O)[C@H](Oc3ccc([N+](=O)[O-])cc3)O[C@@H]2CO)O[C@H](CO)[C@H](O)[C@H](O)[C@H]1O; experiment: pNP-Lactopyranoside (pNP-L) assay, kinetics, TrCel7A 2-18c; conditions: other: TrCel7A 2-18c, 45° C., 30 minutes, pNP-L 8 mM-0.133 mM
Text: as §1, §2, §3

[5] = substrate: [H][C@@]1(O[C@H]2[C@H](O)[C@@H](O)[C@H](Oc3ccc([N+](=O)[O-])cc3)O[C@@H]2CO)O[C@H](CO)[C@H](O)[C@H](O)[C@H]1O; experiment: pNP-Lactopyranoside (pNP-L) assay, kinetics, TrCel7A 1-11; conditions: other: TrCel7A 1-11, 45° C., 30 minutes, pNP-L 8 mM-0.133 mM
Text: as §1, §2, §3

[6] = substrate: [H][C@@]1(O[C@H]2[C@H](O)[C@@H](O)[C@H](Oc3ccc([N+](=O)[O-])cc3)O[C@@H]2CO)O[C@H](CO)[C@H](O)[C@H](O)[C@H]1O; experiment: pNP-Lactopyranoside (pNP-L) assay, kinetics, TrCel7A 11-35a; conditions: other: TrCel7A 11-35a, 45° C., 30 minutes, pNP-L 8 mM-0.133 mM
Text: as §1, §2, §3

[7] = substrate: [H][C@@]1(O[C@H]2[C@H](O)[C@@H](O)[C@H](Oc3ccc([N+](=O)[O-])cc3)O[C@@H]2CO)O[C@H](CO)[C@H](O)[C@H](O)[C@H]1O; experiment: pNP-Lactopyranoside (pNP-L) assay, kinetics, TrCel7A 6-87a; conditions: other: TrCel7A 6-87a, 45° C., 30 minutes, pNP-L 8 mM-0.133 mM
Text: as §1, §2, §3

B1: Trichoderma reesei Cel7A (TrCel7A, SEQ ID NO: 37) variant 1-1d, A241V (with secretion signal) / A224V (without secretion signal) (Trichoderma reesei RUT C-30; … (protein)
chain: QSACTLQSETHPPLTWQKCSSGGTCTQQTGSVVIDANWRWTHATNSSTNCYDGNTWSSTLCPDNETCAKNCCLDGAAYASTYGVTTSGNSLSIGFVTQSAQKNVGARLYLMASDTTYQEFTLLGNEFSFDVDVSQLPCGLNGALYFVSMDADGGVSKYPTNTAGAKYGTGYCDSQCPRDLKFINGQANVEGWEPSSNNANTGIGGHGSCCSEMDIWEANSISEVLTPHPCTTVGQEICEGDGCGGTYSDNRYGGTCDPDGCDWNPYRLGNTSFYGPGSSFTLDTTKKLTVVTQFETSGAINRYYVQNGVTFQQPNAELGSYSGNELNDDYCTAEEAEFGGSSFSDKGGLTQFKKATSGGMVLVMSLWDDYYANMLWLDSTYPTNETSSTPGAVRGSCSTSSGVPAQVESQSPNAKVTFSNIKFGPIGSTGNPSGGNPPGGNPPGTTTTRRPATTTGSSPGPTQSHYGQCGGIGYSGPTVCASGTTCQVLNPYYSQCL
- kcat [1]: 0.933 ± 0.0667 s⁻¹

B2: Trichoderma reesei Cel7A (TrCel7A, SEQ ID NO: 37) variant 6-53a, I110M/Y283N/T462I (with secretion signal) / I93M/Y266N/T445I (without secretion signal) … (protein)
chain: B1 chain with I93M, V224A, Y266N, T445I
- kcat [2]: 0.35 ± 0.05 s⁻¹

B3: Trichoderma reesei Cel7A (TrCel7A) wild-type, SEQ ID NO: 37 (Trichoderma reesei RUT C-30) (protein)
chain: B1 chain with V224A
- kcat [3]: 0.333 ± 0.0167 s⁻¹

B4: Trichoderma reesei Cel7A (TrCel7A, SEQ ID NO: 37) variant 2-18c, T406S/A389V (with secretion signal) / T389S/A372V (without secretion signal) (Trichoderma … (protein)
chain: B1 chain with V224A, A372V, T389S
- Km [4]: 1980 ± 180 µM
- kcat [4]: 0.467 ± 0.117 s⁻¹

B5: Trichoderma reesei Cel7A (TrCel7A, SEQ ID NO: 37) variant 1-11, L366M (with secretion signal) / L349M (without secretion signal) (Trichoderma reesei RUT C-30; … (protein)
chain: B1 chain with V224A, L349M
- kcat [5]: 0.182 ± 0.00333 s⁻¹

B6: Trichoderma reesei Cel7A (TrCel7A, SEQ ID NO: 37) variant 11-35a, G461D (with secretion signal) / G444D (without secretion signal) (Trichoderma reesei RUT … (protein)
chain: B1 chain with V224A, G444D
- kcat [6]: 0.183 s⁻¹

B7: Trichoderma reesei Cel7A (TrCel7A, SEQ ID NO: 37) variant 6-87a, D274V (with secretion signal) / D257V (without secretion signal) (Trichoderma reesei RUT C-30; … (protein)
chain: B1 chain with V224A, D257V
- kcat [7]: 0.4 ± 0.0667 s⁻¹

Source: patent publication US10329548B2, “Fungal cellobiohydrolases” (Alliance for Sustainable Energy, LLC, priority 2017, dated 2019)
